Values of other authors as cited in PMC4847942.
Like-named read-outs stand apart in the source and are kept apart here.

Legend:
Bcl-XL (Homo sapiens) [1] = biological target: Bcl-XL (Homo sapiens) (UniProt Q07817)
Bcl-XL (Homo sapiens) [2] = biological target: Bcl-XL (Homo sapiens) (UniProt Q07817); remark: listed apart in the source

UniProt Q07817, sequence (Q07817 whole entry): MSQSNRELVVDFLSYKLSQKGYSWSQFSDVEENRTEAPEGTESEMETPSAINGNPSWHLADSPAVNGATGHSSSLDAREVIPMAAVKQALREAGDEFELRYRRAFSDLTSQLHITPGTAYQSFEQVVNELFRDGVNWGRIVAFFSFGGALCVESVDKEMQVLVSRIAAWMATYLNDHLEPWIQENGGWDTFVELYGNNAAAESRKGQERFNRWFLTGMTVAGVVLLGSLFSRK

| Kd (Bcl-XL (Homo sapiens) [1]) | Kd (Bcl-XL (Homo sapiens) [2]) | Substance |
| --- | --- | --- |
| 39 nM | – | stapled Bid BH3 helix BH3 (from UniProt P55957) |
| – | 269 nM | Bid BH3 helix BH3 (from UniProt P55957) |
